The source of these data is PMC8427195, “Dehydrogenation Mechanism of Three Stereoisomers of Butane-2,3-Diol in Pseudomonas putida KT2440” (Frontiers in Bioengineering and Biotechnology, 2021).

Usually stoichiometry N stands for a count of units in the complex or per binding partner. What is called Km is the concentration of substrate that gives half-maximal velocity. For orientation: kcat means the maximal rate divided by the concentration of active sites. As a reminder, the kcat/Km is the second-order rate constant that governs catalysis at low substrate concentration.

In data set [1] the target is (2R,3R)-2,3-BDO dehydrogenase (PP0552) of Pseudomonas putida KT2440 (Pseudomonas putida KT2440). Put plainly: SEC; Superdex 200 10/300 GL gel filtration; eluent 50 mM sodium phosphate pH 7.2, 150 mM sodium chloride, 0.5 mL min^-1; native molecular weight estimated against standard proteins and compared with the monomer mass.
Substrate in data set [2]: C[C@@H](O)[C@@H](C)O
Put plainly: purified protein. The settings on record: oxidation with NAD+ (1 mM in general assay), 50 mM Tris-HCl pH 7.4, 30 °C.

Substrate in data set [3]: C[C@H](O)[C@@H](C)O
The experiment in a line: purified protein. The settings on record: oxidation with NAD+ (1 mM in general assay), 50 mM Tris-HCl pH 7.4, 30 °C.

Substrate in data set [4]: CC(=O)C(C)O
Put plainly: purified protein. It is filed as biochemical, Pseudomonas putida. The settings on record: reduction with NADH (0.2 mM in general assay), pH 7.4, 30 °C, apparent Km.

Substrate in data set [5]: NC(=O)c1ccc[n+]([C@@H]2O[C@H](COP(=O)(O)OP(=O)(O)OC[C@H]3O[C@@H](n4cnc5c(N)ncnc54)[C@H](O)[C@@H]3O)[C@@H](O)[C@H]2O)c1
Put plainly: purified protein. It is filed as biochemical, Pseudomonas putida. The settings on record: oxidative direction, diol co-substrate not stated (10 mM in general assay), pH 7.4, 30 °C, varied: cofactor.

Substrate in data set [6]: NC(=O)C1=CN([C@@H]2O[C@H](COP(=O)(O)OP(=O)(O)OC[C@H]3O[C@@H](n4cnc5c(N)ncnc54)[C@H](O)[C@@H]3O)[C@@H](O)[C@H]2O)C=CC1
Put plainly: purified protein. It is filed as biochemical, Pseudomonas putida. The settings on record: reductive direction, pH 7.4, 30 °C, apparent Km, varied: cofactor.

With “(2R,3R)-2,3-BDO dehydrogenase (PP0552) of Pseudomonas putida KT2440 (enzyme)”, the stoichiometry N in data set [1] was 4.

B1: R,R-BDH (PP0552), (2R,3R)-2,3-BDO dehydrogenase (Pseudomonas putida KT2440) (protein)
chain: MNDLSHTHMRAAVWHGRHDIRVEQVPLPADPAPGWVQIKVDWCGICGSDLHEYVAGPVFIPVEAPHPLTGIQGQCILGHEFCGHIAKLGEGVEGYAVGDPVAADACQHCGTCYYCTHGLYNICERLAFTGLMNNGAFAELVNVPANLLYRLPQGFPAEAGALIEPLAVGMHAVKKAGSLLGQTVVVVGAGTIGLCTIMCAKAAGAAQVIALEMSSARKAKAKEAGANVVLDPSQCDALAEIRALTAGLGADVSFECIGNKHTAKLAIDTIRKAGKCVLVGIFEEPSEFNFFELVSTEKQVLGALAYNGEFADVIAFIADGRLDIRPLVTGRIGLEQIVELGFEELVNNKEENVKIIVSPGVR
Take B1: the Km stood at 155 ± 16 µM in data set [2]; 251 ± 22 µM in data set [3]; 101 ± 5 µM in data set [4]; 825 ± 96 µM in data set [5]; 119 ± 22 µM in data set [6]. The kcat is 23.9 s⁻¹ in data set [2]; 21.1 s⁻¹ in data set [3]; 34.34 ± 0.256 s⁻¹ in data set [4]; 52.8 ± 3.8 s⁻¹ in data set [5]; 53.3 ± 5.16 s⁻¹ in data set [6]. The kcat/Km in data set [2] came to 154000 M⁻¹ s⁻¹; in data set [3], 84300 M⁻¹ s⁻¹; in data set [4], 341000 ± 16900 M⁻¹ s⁻¹; in data set [5], 64300 ± 3120 M⁻¹ s⁻¹; in data set [6] it was 454000 ± 36600 M⁻¹ s⁻¹.
